The chains are these.
T1: VEGFR-3-Fc (UniProt P35916 25-328)
T1 construct: domain: first three Ig domains; conditioned supernatant of 293T cells; also called VEGFR-3-Fc fusion protein; not shown: Fc fragment of the pIg vector
T1 sequence (looked up): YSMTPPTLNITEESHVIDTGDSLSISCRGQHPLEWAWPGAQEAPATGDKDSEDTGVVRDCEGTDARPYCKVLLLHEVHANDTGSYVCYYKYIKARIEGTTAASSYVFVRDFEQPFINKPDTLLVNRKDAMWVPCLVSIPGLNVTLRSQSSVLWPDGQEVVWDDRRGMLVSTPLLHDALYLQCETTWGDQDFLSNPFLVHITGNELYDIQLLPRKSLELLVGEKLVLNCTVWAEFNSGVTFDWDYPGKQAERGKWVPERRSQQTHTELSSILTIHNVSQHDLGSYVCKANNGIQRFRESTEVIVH

B1: 73-9 (ligand)
chain: GQNHHEVVKSIDNEWRKTQCMPREVCIDVGKEYPDEIEYIFKPPCVSVYRCGGCCNDEGLECVPTEESNITMQIMRITVPLSQGPKPVTISFLQHNKCECRPKKD
B2: 74-9 (ligand)
chain: GQNHHEVVKSIDNEWRKTQCMPREVCIDVGKEFGVATNTFFKPSCVPLMRCGGCCNDEGLECVPTEESNITMQIMRITVPLSQGPKPVTISFLQHNKCECRPKKD
B3: 23-9 (ligand)
chain: B1 chain with G1A, Q2H, N3Y, H4N, H5T, V7I, V8L
B4: 73-13 (ligand)
chain: B1 chain with L93A, Q94N, N96T, K97S, E99R, R101M, P102S, K104L
B5: 21-9 (ligand)
chain: AHYNTEILKSIDNEWRKTQCMPREVCIDVGKEYPDEIEYIFKPSCVPLMRCGGCCNDEGLECVPTEESNITMQIMRITVPLSQGPKPVTISFLQHNKCECRPKKD
B6: 73-11 (ligand)
chain: B1 chain with D57S, E61Q
B7: 33-9 (ligand)
chain: B1 chain with R23I, V25T, C26L, I27V, V29I, G30F, K31Q
B8: 72-11 (ligand)
chain: B2 chain with S44P, P47S, L48V, M49Y, D57S, E61Q
B9: 41-3 (ligand)
chain: AHYNTEILKFMDVYQRSYCHPREVCIDVGKEYPDEIEYIFKPSCVPLMRCGGCCNSEGLQCVPTEESNITMQIMRIKPHQGQHIGEMSFLQHNKCECRPKKD
B10: 43-7 (ligand)
chain: AHYNTEILKFMDVYQRSYCHPREVCIDVGKEYPDEIEYIFKPPCVSVYRCGGCCNSEGLQCVPTEESNITMQIMRIKPHQGQHIGEMSFANHTSCRCMSKLD
B11: 44-3 (ligand)
chain: B9 chain with Y32F, P33G, D34V, E35A, I36T, E37N, Y38T, I39F
B12: 61-1 (ligand)
chain: B9 chain with A1G, H2Q, Y3N, N4H, T5H, I7V, L8V, S56D, Q60E
B13: 44-1 (ligand)
chain: B9 chain with Y32F, P33G, D34V, E35A, I36T, E37N, Y38T, I39F, S56D, Q60E
B14: 43-1 (ligand)
chain: B9 chain with S43P, P46S, L47V, M48Y, S56D, Q60E
B15: 43-3 (ligand)
chain: B9 chain with S43P, P46S, L47V, M48Y
B16: 61-3 (ligand)
chain: B9 chain with A1G, H2Q, Y3N, N4H, T5H, I7V, L8V
B17: 63-3 (ligand)
chain: GQNHHEVVKFMDVYQRSYCHPREVCIDVGKEYPDEIEYIFKPPCVSVYRCGGCCNSEGLQCVPTEESNITMQIMRIKPHQGQHIGEMSFLQHNKCECRPKKD
B18: 42-3 (ligand)
chain: AHYNTEILKFMDVYQRSYCHPREVCIDVGKEFGVATNTFFKPPCVSVYRCGGCCNSEGLQCVPTEESNITMQIMRIKPHQGQHIGEMSFLQHNKCECRPKKD
B19: 41-5 (ligand)
chain: B10 chain with P43S, S46P, V47L, Y48M, S56D, Q60E
B20: 41-1 (ligand)
chain: B9 chain with S56D, Q60E
B21: 33-1 (ligand)
chain: GQNHHEVVKSIDNEWRKTQCMPIETLVDIFQEYPDEIEYIFKPPCVSVYRCGGCCNDEGLECVPTEESNITMQIMRIKPHQGQHIGEMSFLQHNKCECRPKKD
B22: 33-3 (ligand)
chain: B21 chain with D57S, E61Q

Where a chain is given by its changes, count along the chain named.

T2 sequence (P35968 20-322): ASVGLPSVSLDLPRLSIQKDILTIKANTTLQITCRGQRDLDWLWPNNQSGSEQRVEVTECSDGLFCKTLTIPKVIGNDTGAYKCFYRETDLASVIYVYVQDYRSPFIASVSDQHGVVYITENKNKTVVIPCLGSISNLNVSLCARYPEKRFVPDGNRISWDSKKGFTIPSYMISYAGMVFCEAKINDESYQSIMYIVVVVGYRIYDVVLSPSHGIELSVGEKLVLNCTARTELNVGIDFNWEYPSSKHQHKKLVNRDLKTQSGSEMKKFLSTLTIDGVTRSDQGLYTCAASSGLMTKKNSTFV

The first assay addresses T2, VEGFR-2-Fc (UniProt P35968 20-322).
T2 construct: domain: first 3 Ig domains; conditioned supernatant of 293T cells; also called VEGFR-2-Fc fusion protein; not shown: Fc fragment of the pIg vector
As to the kind of experiment: receptor-Fc IP. How it is done:
(§1) The binding assay procedure was identical to the immunoprecipitation using pentahistidine antibody described in Example 2, apart from the composition of the immunoprecipitation (IP) mixes. The IP mixes used for the receptor binding analysis were as follows: For VEGFR-1 binding assays, the IP mix was phosphate buffered saline (PBS) containing 1.5% BSA, 0.06% Tween 20, 3 μg/ml heparin and 400 ng/ml VEGFR-1-Fc fusion protein (100 μl of this IP mix was added to 200 μl of sample supernatant); for VEGFR-2 binding assays, the IP mix was 82% conditioned cell supernatant from 293T cells transiently expressing VEGFR-2-Fc fusion protein in mixture with 18% of a PBS solution that contained 5% BSA, 0.2% Tween 20, and 10 μg/ml heparin (250 μl of IP mix was added to 200 μl of sample supernatant); and for VEGFR-3 binding assays, the IP mix was 82% conditioned cell supernatant from 293T cells transiently expressing VEGFR-3-Fc fusion protein, 18% of PBS containing 5% BSA, 0.2% Tween 20, and 10 μg/ml heparin (250 μl of IP mix was added to 200 μl of sample supernatant).
Take B1: the binding result is “no binding”.
For B2, the binding result is listed as “no binding”.
On the same count and under the same terms, the value for B3 was “no binding”; that for B4 was “no binding”; that for B5 was “no binding”.
In the case of B6, the binding result was “no binding”.
On to B7, for which the binding result is given as “binds”.
With B8, the binding result is “no binding”.
In the case of B9, the binding result is “no binding”.
On the same count and under the same terms, next, B10: “no binding”; B11: “no binding”; B12: “no binding”.
As for B13, the binding result is listed as “no binding”.
In the case of B14, the binding result is given as “no binding”.
Still for that read-out and setting: next, B15: “no binding”.
Consider B16, for which the binding result is given as “no binding”.
Take B17: the binding result was “binds”.
For B18, the binding result is “no binding”.
On the same count and under the same terms, next, B19: “no binding”.
On to B20, for which the binding result is “no binding”.
Still for that read-out and setting: next, B21: “binds”.
Consider B22, for which the binding result was “binds”.

The next assay deals with T3, VEGFR-1-Fc (UniProt P17948 27-338).
T3 construct: domain: first three Ig domains; expressed in Drosophila S2 cells, purified on Protein A sepharose; also called VEGFR-1-Fc fusion protein; not shown: Fc fragment from the Signal-pIgPlus vector
T3 sequence (P17948 27-338): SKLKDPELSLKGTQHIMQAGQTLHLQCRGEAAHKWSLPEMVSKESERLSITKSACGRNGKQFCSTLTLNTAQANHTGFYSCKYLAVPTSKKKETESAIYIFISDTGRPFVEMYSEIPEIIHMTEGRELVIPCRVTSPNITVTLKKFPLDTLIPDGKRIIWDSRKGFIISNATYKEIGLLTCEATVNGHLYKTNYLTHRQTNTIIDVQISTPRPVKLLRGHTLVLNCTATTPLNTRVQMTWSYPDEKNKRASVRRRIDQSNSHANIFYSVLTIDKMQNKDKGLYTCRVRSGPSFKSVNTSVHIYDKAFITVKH
As to the kind of experiment: receptor-Fc IP. The protocol: as §1
On to B1, for which the binding result is “no binding”.
For the molecule B2, the binding result is “no binding”.
As to B3, the binding result is reported as “no binding”.
Turning to B4, the binding result was “no binding”.
Still for that read-out and setting: the value for B5 was “no binding”; that for B6 was “no binding”.
As for B7, the binding result is listed as “no binding”.
As to B8, the binding result is “no binding”.
Consider B9, for which the binding result is recorded as “no binding”.
As to B10, the binding result is reported as “no binding”.
For the molecule B11, the binding result is “no binding”.
Still for that read-out and setting: next, B12: “binds”.
On to B13, for which the binding result is reported as “no binding”.
The same measure, in the same setting: the value for B14 was “binds”.
With B15, the binding result is “no binding”.
For B16, the binding result was “binds”.
Still for that read-out and setting: the value for B17 was “no binding”; that for B18 was “no binding”; that for B19 was “no binding”.
Turning to B20, the binding result is listed as “binds”.
Consider B21, for which the binding result is reported as “no binding”.
Take B22: the binding result is reported as “no binding”.

For a further assay, the target named is T1, VEGFR-3-Fc. As to the kind of experiment: receptor-Fc IP. How it is done:
as §1
Take B1: the binding result is on record as “no binding”.
Consider B2, for which the binding result is “no binding”.
For the molecule B3, the binding result is “no binding”.
In the case of B4, the binding result was “no binding”.
B5: the binding result is “no binding”.
Regarding B6, the binding result was “no binding”.
Still for that read-out and setting: next, B7: “no binding”; B8: “no binding”; B9: “no binding”.
In the case of B10, the binding result is recorded as “no binding”.
On to B11, for which the binding result is “no binding”.
As for B12, the binding result is “no binding”.
Consider B13, for which the binding result is on record as “no binding”.
Same read-out and setting: the value for B14 was “no binding”.
As to B15, the binding result is “no binding”.
In the case of B16, the binding result is given as “no binding”.
For the molecule B17, the binding result is on record as “no binding”.
For the molecule B18, the binding result was “no binding”.
Still for that read-out and setting: next, B19: “no binding”; B20: “no binding”; B21: “no binding”.
Regarding B22, the binding result is recorded as “no binding”.

Values taken from US20080058263A1 (published 2008).
